Experimental data as given in PMC8876501, “Structural and Functional Insight into the Mechanism of Bacillus subtilis 6S-1 RNA Release from RNA Polymerase”.

Columns and labels:
[1] = target: T1, native sigmaA-RNA polymerase holoenzyme (Bacillus subtilis, UniProt P20429;P37870;P37871;P06224 1-314;1-1193;1-1199;1-371); experiment: EMSA; 5 mM Mg2+, heparin 80 ng/uL; 40 mM Tris-HCl pH 8.0, 5 mM MgCl2, 160 mM KCl, 1 mM DTT, heparin 80 ng/uL, ~10 nM RNA, plus RNAP storage buffer; 30 min at 37 C; native 7.5% PAGE (10% for Fig 12); settings: protein: native, chain copies: 2;1;1;1, label: 5'-32P
[2] = target: T1, native sigmaA-RNA polymerase holoenzyme; experiment: EMSA; up to 3-fold with other RNAP preparations; 40 mM Tris-HCl pH 8.0, 5 mM MgCl2, 160 mM KCl, 1 mM DTT, heparin 80 ng/uL, ~10 nM RNA, plus RNAP storage buffer; 30 min at 37 C; native 7.5% PAGE (10% for Fig 12); settings: protein: native; chain copies: 2;1;1;1; label: 5'-32P
[3] = target: T1, native sigmaA-RNA polymerase holoenzyme; experiment: EMSA; pLNA pre-annealed; 40 mM Tris-HCl pH 8.0, 5 mM MgCl2, 160 mM KCl, 1 mM DTT, heparin 80 ng/uL, ~10 nM RNA, plus RNAP storage buffer; 30 min at 37 C; native 7.5% PAGE (10% for Fig 12); settings: protein: native; chain copies: 2;1;1;1; label: 5'-32P on 6S-1 RNA; pLNA annealed to 6S-1 RNA from nt 40 upstream
[4] = target: T2, sigmaA-RNA polymerase holoenzyme (native or His-tagged SG7 preparation, not specified for this assay) (Bacillus subtilis, UniProt P20429;P37870;P37871;P06224 1-314;1-1193;1-1199;1-371); experiment: EMSA; almost three-fold; K1/2 only in graph; 40 mM Tris-HCl pH 8.0, 5 mM MgCl2, 160 mM KCl, 1 mM DTT, heparin 80 ng/uL, ~10 nM RNA, plus RNAP storage buffer; 30 min at 37 C; native 7.5% PAGE (10% for Fig 12); settings: protein: native; chain copies: 2;1;1;1; label: 5'-32P
[5] = target: T1, native sigmaA-RNA polymerase holoenzyme; experiment: EMSA; pRNA pre-annealed; 40 mM Tris-HCl pH 8.0, 5 mM MgCl2, 160 mM KCl, 1 mM DTT, heparin 80 ng/uL, ~10 nM RNA, plus RNAP storage buffer; 30 min at 37 C; native 7.5% PAGE (10% for Fig 12); settings: protein: native; chain copies: 2;1;1;1; label: 5'-32P on 6S-1 RNA; pRNA annealed to 6S-1 RNA from nt 40 upstream
[6] = target: T2, sigmaA-RNA polymerase holoenzyme …; experiment: EMSA; K1/2 printed only in graph; 40 mM Tris-HCl pH 8.0, 5 mM MgCl2, 160 mM KCl, 1 mM DTT, heparin 80 ng/uL, ~10 nM RNA, plus RNAP storage buffer; 30 min at 37 C; native 7.5% PAGE (10% for Fig 12); settings: protein: native; chain copies: 2;1;1;1; label: 5'-32P
[7] = target: T1, native sigmaA-RNA polymerase holoenzyme; experiment: EMSA; Kd printed only in graph; 40 mM Tris-HCl pH 8.0, 5 mM MgCl2, 160 mM KCl, 1 mM DTT, heparin 80 ng/uL, ~10 nM RNA, plus RNAP storage buffer; 30 min at 37 C; native 7.5% PAGE (10% for Fig 12); settings: protein: native; chain copies: 2;1;1;1; label: 5'-32P

T1 sequence (P20429 whole entry, chain 1 of 4): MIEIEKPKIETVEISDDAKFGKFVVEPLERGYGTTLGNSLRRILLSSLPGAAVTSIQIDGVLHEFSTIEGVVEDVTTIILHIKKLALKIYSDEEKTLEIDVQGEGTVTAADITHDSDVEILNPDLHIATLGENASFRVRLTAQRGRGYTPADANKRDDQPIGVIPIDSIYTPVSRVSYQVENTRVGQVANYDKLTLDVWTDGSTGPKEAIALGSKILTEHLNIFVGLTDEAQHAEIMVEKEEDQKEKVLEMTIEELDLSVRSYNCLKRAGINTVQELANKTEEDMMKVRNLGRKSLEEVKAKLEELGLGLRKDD
T1 sequence (P37870 whole entry, chain 2 of 4): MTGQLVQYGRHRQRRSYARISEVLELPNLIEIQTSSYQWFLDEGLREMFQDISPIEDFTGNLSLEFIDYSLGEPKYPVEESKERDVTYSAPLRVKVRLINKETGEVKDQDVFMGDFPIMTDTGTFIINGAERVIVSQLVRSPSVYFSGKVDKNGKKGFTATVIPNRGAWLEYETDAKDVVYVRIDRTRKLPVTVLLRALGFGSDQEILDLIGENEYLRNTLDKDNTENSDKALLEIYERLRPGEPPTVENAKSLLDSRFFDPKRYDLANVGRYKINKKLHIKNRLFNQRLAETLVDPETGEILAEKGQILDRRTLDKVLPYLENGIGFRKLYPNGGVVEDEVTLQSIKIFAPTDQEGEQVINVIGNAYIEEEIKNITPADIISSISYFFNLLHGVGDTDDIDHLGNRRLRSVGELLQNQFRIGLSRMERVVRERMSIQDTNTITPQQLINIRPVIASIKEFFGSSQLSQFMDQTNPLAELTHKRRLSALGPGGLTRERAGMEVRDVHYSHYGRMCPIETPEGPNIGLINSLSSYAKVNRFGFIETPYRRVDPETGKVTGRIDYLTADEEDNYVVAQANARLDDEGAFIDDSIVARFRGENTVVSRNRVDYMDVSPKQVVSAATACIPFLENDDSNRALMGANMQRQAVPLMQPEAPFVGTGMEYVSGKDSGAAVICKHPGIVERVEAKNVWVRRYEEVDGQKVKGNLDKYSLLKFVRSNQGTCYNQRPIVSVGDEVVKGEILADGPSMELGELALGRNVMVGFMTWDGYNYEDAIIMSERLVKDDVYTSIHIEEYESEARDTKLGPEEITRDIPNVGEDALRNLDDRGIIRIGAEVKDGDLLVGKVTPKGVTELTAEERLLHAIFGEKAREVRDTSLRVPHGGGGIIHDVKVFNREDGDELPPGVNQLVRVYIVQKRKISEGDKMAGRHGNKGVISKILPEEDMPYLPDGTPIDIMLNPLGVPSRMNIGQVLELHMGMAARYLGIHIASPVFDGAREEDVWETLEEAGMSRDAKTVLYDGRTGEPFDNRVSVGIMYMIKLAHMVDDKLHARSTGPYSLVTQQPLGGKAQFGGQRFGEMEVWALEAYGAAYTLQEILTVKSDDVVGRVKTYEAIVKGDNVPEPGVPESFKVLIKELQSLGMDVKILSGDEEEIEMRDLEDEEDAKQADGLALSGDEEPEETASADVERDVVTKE
T1 sequence (P37871 whole entry, chain 3 of 4): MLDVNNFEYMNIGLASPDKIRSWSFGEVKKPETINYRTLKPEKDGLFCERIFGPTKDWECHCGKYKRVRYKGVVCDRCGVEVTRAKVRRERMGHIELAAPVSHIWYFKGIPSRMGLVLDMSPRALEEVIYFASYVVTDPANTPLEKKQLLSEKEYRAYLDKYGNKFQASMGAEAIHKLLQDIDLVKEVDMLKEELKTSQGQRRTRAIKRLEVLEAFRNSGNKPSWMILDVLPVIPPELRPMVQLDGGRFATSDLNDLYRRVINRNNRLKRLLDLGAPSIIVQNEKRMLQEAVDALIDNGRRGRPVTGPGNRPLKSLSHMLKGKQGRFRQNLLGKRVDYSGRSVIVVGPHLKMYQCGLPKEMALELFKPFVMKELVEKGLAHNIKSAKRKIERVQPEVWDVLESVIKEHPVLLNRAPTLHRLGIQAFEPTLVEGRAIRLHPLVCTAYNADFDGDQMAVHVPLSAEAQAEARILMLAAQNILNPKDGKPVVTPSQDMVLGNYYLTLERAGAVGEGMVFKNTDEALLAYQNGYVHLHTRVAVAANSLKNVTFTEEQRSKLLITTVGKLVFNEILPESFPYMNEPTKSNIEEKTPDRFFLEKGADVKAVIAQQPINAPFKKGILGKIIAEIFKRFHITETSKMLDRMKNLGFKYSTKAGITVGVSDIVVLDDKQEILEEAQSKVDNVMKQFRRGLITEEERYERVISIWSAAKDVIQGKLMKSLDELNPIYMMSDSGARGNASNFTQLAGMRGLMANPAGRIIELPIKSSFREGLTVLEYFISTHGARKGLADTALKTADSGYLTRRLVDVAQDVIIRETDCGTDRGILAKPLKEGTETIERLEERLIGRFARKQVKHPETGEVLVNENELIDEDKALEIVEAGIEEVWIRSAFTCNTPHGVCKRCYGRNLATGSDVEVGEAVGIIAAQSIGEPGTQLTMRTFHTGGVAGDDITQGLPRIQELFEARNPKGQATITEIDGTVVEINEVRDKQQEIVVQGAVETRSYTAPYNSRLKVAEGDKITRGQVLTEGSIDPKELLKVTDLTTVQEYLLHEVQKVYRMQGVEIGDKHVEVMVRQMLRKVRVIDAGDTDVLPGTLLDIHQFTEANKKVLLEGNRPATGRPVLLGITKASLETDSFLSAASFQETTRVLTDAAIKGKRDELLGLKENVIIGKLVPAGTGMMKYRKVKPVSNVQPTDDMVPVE
T1 sequence (P06224 whole entry, chain 4 of 4): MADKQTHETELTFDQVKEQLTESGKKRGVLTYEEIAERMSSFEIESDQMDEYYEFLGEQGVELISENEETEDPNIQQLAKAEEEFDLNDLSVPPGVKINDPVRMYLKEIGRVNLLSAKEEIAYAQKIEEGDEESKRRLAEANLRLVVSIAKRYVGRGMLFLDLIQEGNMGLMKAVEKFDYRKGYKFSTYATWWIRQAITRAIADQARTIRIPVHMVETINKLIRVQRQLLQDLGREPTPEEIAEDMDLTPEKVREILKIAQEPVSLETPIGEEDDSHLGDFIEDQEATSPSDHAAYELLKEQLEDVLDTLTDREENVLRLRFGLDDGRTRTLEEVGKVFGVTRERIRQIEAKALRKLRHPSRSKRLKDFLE
T2 sequence (P20429 whole entry, chain 1 of 4): as the sequence (P20429 whole entry, chain 1 of 4) above
T2 sequence (P37870 whole entry, chain 2 of 4): as the sequence (P37870 whole entry, chain 2 of 4) above
T2 sequence (P37871 whole entry, chain 3 of 4): as the sequence (P37871 whole entry, chain 3 of 4) above
T2 sequence (P06224 whole entry, chain 4 of 4): as the sequence (P06224 whole entry, chain 4 of 4) above

B1: wt 6S-1 RNA (190 nt) (structured_RNA)
RNA: AGUCCUGAUGUGUUAGUUGUACACCUAGUUUUGACCGAACAUUUUUUUGAUUUGGGAGCCCGCAUUUUUAAAUGGCGUACAUGCCUCUUUUCAUUCGGUAAAGAGGACUUACAAGAUUUAAAAGAGGGCACCCACCUGCUGAGAGCGGGUUCAAAACAAAGGAAAGCUGCAACGGCACUAUUGGGACUUU
Q: For B1, which “apparent K (half saturation)” value ([1]; rod-shaped, central bubble flanked by two helical arms) is on record?
A: ~100 nM

B2: 6S-1 RNA C44/45 (structured_RNA)
RNA: AGUCCUGAUGUGUUAGUUGUACACCUAGUUUUGACCGAACAUUCCUUUGAUUUGGGAGCCCGCAUUUUUAAAUGGCGUACAUGCCUCUUUUCAUUCGGUAAAGAGGACUUACAAGAUUUAAAAGAGGGCACCCACCUGCUGAGAGCGGGUUCAAAACAAAGGAAAGCUGCAACGGCACUAUUGGGACUUU
Q: B2 was tested. Which binding signal [2] did it give?
A: ~2 fold lower affinity vs wt

B3: 6S-1 RNA:pLNA 8-mer (mixed)
RNA: AGUCCUGAUGUGUUAGUUGUACACCUAGUUUUGACCGAACAUUUUUUUGAUUUGGGAGCCCGCAUUUUUAAAUGGCGUACAUGCCUCUUUUCAUUCGGUAAAGAGGACUUACAAGAUUUAAAAGAGGGCACCCACCUGCUGAGAGCGGGUUCAAAACAAAGGAAAGCUGCAACGGCACUAUUGGGACUUU
DNA: GTTCGGTC
modifications: strand 2 all-LNA
Q: Does B3 bind [3]?
A: no binding

B4: 6S-1 RNA:pLNA 6-mer (mixed)
RNA: AGUCCUGAUGUGUUAGUUGUACACCUAGUUUUGACCGAACAUUUUUUUGAUUUGGGAGCCCGCAUUUUUAAAUGGCGUACAUGCCUCUUUUCAUUCGGUAAAGAGGACUUACAAGAUUUAAAAGAGGGCACCCACCUGCUGAGAGCGGGUUCAAAACAAAGGAAAGCUGCAACGGCACUAUUGGGACUUU
DNA: GTTCGG
modifications: strand 2 LNA, iso-sequential to pRNA (first 6 nt inferred)
Q: Does B4 bind [3]?
A: no binding

B5: C44/45 6M 6S-1 RNA (structured_RNA)
RNA: AGUCCUGAUGUGUUAGUUGUACACCUAGUCAAGGCCGAACAUUCCUUUGAUUUGGGAGCCCGCAUUUUUAAAUGGCGUACAUGCCUCUUUUCAUUCGGUAAAGAGGACUUACAAGAUUUAAAAGAGGGCACCCACCUGCUGAGAGCGGGUUCAUGACAAAGGAAAGCUGCAACGGCACUAUUGGGACUUU
Q: Which binding signal [4] does the source give for B5 here?
A: ~3 fold lower affinity vs wt 6M

B6: 6S-1 RNA:pRNA 14-mer (structured_RNA)
RNA 1: AGUCCUGAUGUGUUAGUUGUACACCUAGUUUUGACCGAACAUUUUUUUGAUUUGGGAGCCCGCAUUUUUAAAUGGCGUACAUGCCUCUUUUCAUUCGGUAAAGAGGACUUACAAGAUUUAAAAGAGGGCACCCACCUGCUGAGAGCGGGUUCAAAACAAAGGAAAGCUGCAACGGCACUAUUGGGACUUU
RNA 2: GUUCGGUCAAAACU
Q: Does B6 bind [5]?
A: no binding

B7: C44/45 8M 6S-1 RNA (structured_RNA)
RNA: AGUCCUGAUGUGUUAGUUGUACACCUAGUCAAGGCCGAACAUUCCUUUGAUUUGGGAGCCCGCAUUUUUAAAUGGCGUACAUGCCUCUUUUCAUUCGGUAAAGAGGACUUACAAGAUUUAAAAGAGGGCACCCACCUGCUGAGAGCGGGUCCUUGACAAAGGAAAGCUGCAACGGCACUAUUGGGACUUU
Q: For B7, which binding signal [6] is on record?
A: ~1.5 fold lower affinity vs wt 8M

B8: 6S-1 RNA:pLNA 7-mer (mixed)
RNA: AGUCCUGAUGUGUUAGUUGUACACCUAGUUUUGACCGAACAUUUUUUUGAUUUGGGAGCCCGCAUUUUUAAAUGGCGUACAUGCCUCUUUUCAUUCGGUAAAGAGGACUUACAAGAUUUAAAAGAGGGCACCCACCUGCUGAGAGCGGGUUCAAAACAAAGGAAAGCUGCAACGGCACUAUUGGGACUUU
DNA: GTTCGGT
modifications: strand 2 LNA, iso-sequential to pRNA (first 7 nt inferred)
Q: Does B8 bind [3]?
A: no binding

B9: 6S-1 RNA A50U (structured_RNA)
RNA: AGUCCUGAUGUGUUAGUUGUACACCUAGUUUUGACCGAACAUUUUUUUGUUUUGGGAGCCCGCAUUUUUAAAUGGCGUACAUGCCUCUUUUCAUUCGGUAAAGAGGACUUACAAGAUUUAAAAGAGGGCACCCACCUGCUGAGAGCGGGUUCAAAACAAAGGAAAGCUGCAACGGCACUAUUGGGACUUU
Q: How did the binding signal [7] turn out when B9 was run?
A: ~2 fold Kd increase vs wt

B10: 6S82cp RNA (structured_RNA)
RNA: GGGCACCCACCUGCUGAGAGCGGGUUCAAAACAAAGGAAAGCCACCUAGUUUUGACCGAACAUUUUUUUGAUUUGGGAGCCC
Q: B10 was tested. Which “apparent K (half saturation)” value ([1]; artificial loop capping P2) did it give?
A: ~1000 nM

B11: 6S78 RNA (structured_RNA)
RNA: CCUAGUUUUGACCGAACAUUUUUUUGAUUUGGGAGCCCGCAGGGCACCCACCUGCUGAGAGCGGGUUCAAAACAAAGG
Q: With B11 as the binder, how does the “apparent K (half saturation)” value [1] read?
A: ~1000 nM
